Results published in the supplement of paper PMC10567573.

B1: ESRRA (parent)
chain: LGVAQRSLPLQDELAFAEDLVLDE

Variants of: B1
Assay: protein stability index of a GFP-peptide fusion (GPS, HEK-293T) (PSI 1-6); higher = more stable
Conditions: c terminus: a fixed tail appended
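Further: lentivirally expressed fusions sorted by FACS into six bins by GFP to DsRed ratio, PSI derived from sequencing read proportions per bin multiplied by bin number.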

Protein stability index of substitutions, site by site:
V21: P 5.27 | K 5.28 | R 4.83 | C 4.31 | Q 5.24 | S 4.43
A4: P 3.1 | E 3.45 | M 2.58 | L 2.42 | N 2.94
L20: K 4.98 | N 4.85 | R 4.19 | I 3.18
R6: Q 3.81 | T 3.23 | G 2.56 | I 2.37 | D 4.23 | N 2.64
G2: Q 2.98 | V 2.34 | R 1.93 | F 1.87 | M 2.36 | T 2.91
L10: T 5.47 | A 5.58 | R 5.44 | M 3.54 | H 5.26 | K 5.21 | Y 5.12 | W 4.84 | C 5.41 | I 4.7 | S 5.19
D23: Y 2.3 | L 2.64 | Q 1.74 | M 2.01 | R 2.51
D12: E 2.3 | H 2.17 | S 2.01 | I 1.74 | Q 1.7 | G 3.59 | C 1.92
S7: P 3.14 | N 2.46 | M 2.84 | K 3.13 | V 2.94
Q11: L 3.3 | S 4.37 | W 2.71 | C 3.94 | F 4 | M 3.65 | A 3.11 | K 2 | T 4.57 | N 4.12 | P 4.66 | E 4.87
D19: R 2.01 | Y 2.03 | M 2.43 | C 1.82 | T 1.91 | S 2.21 | N 1.76 | V 1.76 | F 2.56
L14: N 5.42 | P 5.38 | C 5.43 | G 5.46 | E 5.5 | H 5.43 | K 5.15
P9: K 3.07 | S 3.49 | A 4.37 | G 2.64 | Y 3.66
A17: G 4.76 | L 4.3 | T 3.8 | V 4.77 | K 5.25 | R 4.83 | E 5.09 | M 4.88 | C 4.9
A15: H 4.39 | C 3.93 | T 3.26 | S 3.68 | Q 3.65 | G 4.74 | Y 4.29 | I 4.41
Q5: G 2.26 | H 2.71 | A 2.51 | F 1.87 | L 2.07 | R 1.74
L8: M 3.25 | T 3.24 | H 2.88 | D 4.91 | Y 1.86 | R 2.02
L22: M 4.2 | F 3.95 | C 3.76 | D 5.13 | H 3.52 | Y 3.98
E24: L 2.3 | F 2.42 | D 4.07 | C 1.66 | Q 3.67 | A 1.89
E18: I 2.56 | N 4.9 | H 4.6 | M 3.84 | R 5.04 | D 5.17 | K 4.58 | L 2.89
V3: E 4.36 | L 2.61 | W 2.82 | F 2.31 | I 2.21
F16: K 3.43 | G 4.64 | P 5.83 | Q 2.68 | A 3.16 | I 2.34 | V 4.09
L1: T 3.5 | I 2.2 | H 2.98 | N 2.58 | S 3.75 | P 3.63 | R 2.18
E13: T 3.92 | R 4.62 | F 3.12 | L 2.5 | G 4.81 | P 4.71 | K 4.95 | I 2.42 | Q 2.99 | Y 3.5 | S 4.45
